# In the supplement of paper PMC10724198:
# ± gives the standard deviation of the averaged measurements.
# Tested on: Saccharomyces cerevisiae
# Assay: protein stability index of tFT-peptide fusion (C-terminal peptide) (PSI (0-1 scale)); higher = more stable (slower turnover)
# Settings: genetic background: wild type; temperature: 30 C
# 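Also: PSI is a weighted mean of sequencing reads over stability bins, variants kept only with over 10 reads, mCherry proximal and sfGFP distal, peptide attached via GGGS linker.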
row,Sequence,protein stability index
1,NNVCGIIFRQHH,0.632 ± 0.048
2,PSPPTPHPPCRS,0.746 ± 0.013
3,PGVAGSLSLLRR,0.722 ± 0.097
4,PPPPPLRVPPPP,0.6753 ± 0.004
5,GVSWMRAGFEFM,0.779 ± 0.021
6,AGLVPSSLQSVS,0.695 ± 0.019
7,LFSARRKSPTSL,0.708 ± 0.058
8,LSVVLARLCQGS,0.6842 ± 0.0052
9,GGCNLLGRGPDF,0.694 ± 0.024
10,GGGWSGRGVGDR,0.727 ± 0.078
11,LGVLRALLGEGM,0.688 ± 0.033
12,VVGRGGGFVGPG,0.616 ± 0.026
13,MVIYGKEGWRIQ,0.661 ± 0.07
14,YPYRKRTIGVRT,0.595 ± 0.015
15,ARAPPLPPPPAL,0.698 ± 0.0076
16,PLPPHRLPYPRL,0.81 ± 0.025
17,LSLPTLPLPPPS,0.7173 ± 0.006
18,RQQKTNERRPRT,0.648 ± 0.04
19,VSFAGSPVPSSS,0.716 ± 0.0095
20,TAGVQSGCTRII,0.618 ± 0.052
21,DLSFVLAPFVSP,0.6683 ± 0.0038
22,VITGGFVVGCCG,0.623 ± 0.018
23,NDHEQGPTQARG,0.669 ± 0.044
24,LVVGGLVLSGNL,0.668 ± 0.057
25,HTSFQTNASPKD,0.727 ± 0.031
26,LRPPPPSAGAPP,0.708 ± 0.088

row,Sequence,protein stability index
1,GCSLWAVRTWGL,0.699 ± 0.01
2,VRFVVRVFQCSF,0.466 ± 0.052
3,PPPPPPLITPPL,0.666 ± 0.052
4,GVRLRNLTIITI,0.697 ± 0.037
5,PLAGLWPCRSGS,0.669 ± 0.016
6,LLLDIFYWTVQS,0.615 ± 0.049
7,AAVSRPLPLGPP,0.693 ± 0.075
8,STQELHYCFVCL,0.59 ± 0.022
9,SNTKLIGGFFRD,0.646 ± 0.1
10,SGTFACCLGVCL,0.6806 ± 0.0062
11,PSPFPCVFRFSA,0.635 ± 0.029
12,LSDKTALDRPVH,0.625 ± 0.057
13,RGWDEHRVGSEY,0.671 ± 0.095
14,LLDRGLLSALLA,0.563 ± 0.034
15,SGLSFPPLYSLL,0.715 ± 0.092
16,EEGVARYVERWV,0.675 ± 0.0075
17,ANQKRTKQQHRR,0.722 ± 0.01
18,NRSMFSSQNDNA,0.671 ± 0.066
19,PPPRLPTSPDSP,0.722 ± 0.061
20,IFIVINGHFAGS,0.66 ± 0.06
21,DVYFHTRSCGTP,0.688 ± 0.016
22,GGYRFCSKYKSE,0.673 ± 0.023
23,NKHYIQSHTDPD,0.698 ± 0.023
24,VWGVFGGCWCGV,0.693 ± 0.021
25,GGALFVCSSVGR,0.681 ± 0.033
26,SSCRHYRSPINH,0.764 ± 0.069

row,Sequence,protein stability index
1,LPPPSLPPLPLF,0.728 ± 0.065
2,PILFHIPHRHVP,0.749 ± 0.25
3,ASPLFPLPPPPP,0.71 ± 0.004
4,LSPLPPDLPDLP,0.699 ± 0.12
5,YATAICRSGCLK,0.699 ± 0.037
6,SGGGSSSGKGIR,0.715 ± 0.091
7,APPFRYLNSVSC,0.66 ± 0.034
8,WFGSGGRGWREF,0.713 ± 0.048
9,WCFSLGYFFFCR,0.585 ± 0.05
10,LPRPPLLTPSCL,0.746 ± 0.06
11,AVGVCGGGWWWA,0.792 ± 0.098
12,DAELYLPSPTRL,0.666 ± 0.064
13,DERSWLPLFFST,0.695 ± 0.035
14,GCFLSERLFTPL,0.7304 ± 0.00085
15,LLAGGDVSGVGV,0.695 ± 0.015
16,AWSVRVGGSATA,0.695 ± 0.033
17,FFLLLCSSCFGV,0.583 ± 0.021
18,HRPSPLPPRVPL,0.673 ± 0.033
19,SRMRRGCTGCEC,0.671 ± 0.061
20,GSRIVCFWSGAG,0.717 ± 0.011
21,RGKVVRLLLERM,0.72 ± 0.067
22,PLLSPLPSHPHP,0.815 ± 0.058
23,RPPPSAIPPPSP,0.6274 ± 0.0014
24,GPVVHSAPRVRL,0.686 ± 0.069
25,PAPRARTPLDRI,0.683 ± 0.039
26,GHVCTRCVWPRV,0.606 ± 0.055

row,Sequence,protein stability index
1,VSPGYWGPAPLC,0.682 ± 0.016
2,VLLAGPIPSALP,0.662 ± 0.0079
3,GDGGGMVEGLSR,0.66946 ± 0.00014
4,SKTQRAQSGNSA,0.699 ± 0.054
5,GAGLLRLWEVGG,0.733 ± 0.049
6,AYSPLFPPLLSL,0.649 ± 0.045
7,PRALPSPPPPPP,0.661 ± 0.13
8,IFSSFCPASFFL,0.757 ± 0.031
9,GLRGFCGVIEFF,0.721 ± 0.14
10,LLDGAGGGVGEG,0.738 ± 0.033
11,GSSGPCRSHVLG,0.694 ± 0.02
12,RGCGAIYRGSCG,0.707 ± 0.021
13,LRKAKRDKRIKI,0.759 ± 0.075
14,WRRPRVLWVSSR,0.637 ± 0.0079
15,PLPPPPPLLPTC,0.669 ± 0.037
16,RVGLCGSSLGVI,0.742 ± 0.078
17,DQRRWLWGGILK,0.707 ± 0.018
18,DLLAVPALTLHL,0.677 ± 0.14
19,AGAWGREVVGWG,0.708 ± 0.033
20,LLNIPLVFFSFP,0.58 ± 0.1
21,LHLRPPHPPLPS,0.717 ± 0.015
22,WVGSGRVWVKLG,0.708 ± 0.0092
23,PLSPLPPSPGPS,0.766 ± 0.051
24,CCRTMLGSLVRS,0.659 ± 0.012
25,NQEIGLRNQGRV,0.69 ± 0.033
26,SWGRYSYIEVMR,0.7022 ± 0.0057

row,Sequence,protein stability index
1,LLNLLLFLLPPS,0.636 ± 0.031
2,PPIALTPRTPAP,0.747 ± 0.097
3,SSTALVFRLICL,0.63 ± 0.016
4,EGWPGGRGGAGL,0.614 ± 0.032
5,TAAEECIGRAIG,0.671 ± 0.04
6,QKPKKKNTTEKQ,0.689 ± 0.021
7,WTSGCLEIFRRE,0.702 ± 0.033
8,CDRPERRRTHVY,0.655 ± 0.041
9,SPSCFFIFALPC,0.605 ± 0.037
10,PNPPPPRPTPTP,0.6688 ± 0.0049
11,WSGVFSCTLSIT,0.567 ± 0.038
12,PPLGPTSARALA,0.619 ± 0.014
13,CPPRPCTASIVR,0.632 ± 0.036
14,LLSPLRPPPFAP,0.698 ± 0.041
15,SVFGCLPFDLMV,0.735 ± 0.0088
16,CRVVRGGEGLGG,0.652 ± 0.0081
17,PSHGSRPSPPLR,0.676 ± 0.034
18,SGLERGCSRCWH,0.687 ± 0.0088
19,TPSNTRPTLHIP,0.6404 ± 0.0011
20,ITEYKIKLKNKE,0.671 ± 0.023
21,GCWAGLGAPGVS,0.71 ± 0.027
22,MGQVMTKQQRKI,0.668 ± 0.016
23,GVSWSWRGCCRR,0.7109 ± 0.0058
24,HPSRWPSPRAIL,0.684 ± 0.051
25,PPPRLTVPIPSS,0.6477 ± 0.0054
26,GGAGLGVVLGWW,0.6833 ± 0.0062

row,Sequence,protein stability index
1,VFDHVGWPFWSY,0.714 ± 0.041
2,PLPTSMNTHALV,0.683 ± 0.079
3,RSDCLIDSRMVD,0.694 ± 0.094
4,TNYIPRQSKKGG,0.71 ± 0.022
5,SWGGLGSFCRVI,0.684 ± 0.014
6,PPPPRRPPPAPF,0.6935 ± 0.0022
7,RGVIKNKIKRLK,0.768 ± 0.078
8,VVADNGASGWAW,0.7579 ± 0.0033
9,SLRLFSPILSSL,0.684 ± 0.011
10,LTFILGPPRMWL,0.669 ± 0.018
11,KKTKKKRGEYKK,0.714 ± 0.017
12,GGPAWGRGGMYW,0.678 ± 0.034
13,PHSDGVRLAEGF,0.713 ± 0.077
14,KSSNIDINCNQN,0.691 ± 0.053
15,VGGGLSLGGVWW,0.691 ± 0.038
16,FFNFVYYFTTPR,0.635 ± 0.019
17,SLPGVRVPRVGR,0.715 ± 0.059
18,GYCLGVGLRLLH,0.562 ± 0.018
19,DIYNRNKRRDIT,0.644 ± 0.0067
20,SPTPPRMPLSLP,0.677 ± 0.024
21,VEFGIFACFTRP,0.6687 ± 0.0019
22,PVVRISRLSFFA,0.674 ± 0.007
23,KGQGPAKTRTRE,0.723 ± 0.031
24,ARVRAQIRDGRT,0.6403 ± 0.0021
25,NKRKTKNKERRA,0.65 ± 0.012
26,GGNMPNNCWSRI,0.698 ± 0.022

row,Sequence,protein stability index
1,NGCVRNVSSLVF,0.607 ± 0.066
2,PLSPPPVNIPPT,0.733 ± 0.039
3,GLAYPAGALSLL,0.684 ± 0.1
4,FGFWCGWFAALP,0.689 ± 0.0094
5,NPDVYKRNYQHK,0.605 ± 0.035
6,GKALPALPSGLL,0.657 ± 0.025
7,EGGGGGAGDARR,0.685 ± 0.017
8,EVGLGAAGLSGP,0.749 ± 0.031
9,VRVGRGGKELND,0.576 ± 0.11
10,ACLYDSMSVSSK,0.6386 ± 0.0012
11,ACGGVWASGRGG,0.705 ± 0.017
12,RPSLSRSSLLSP,0.701 ± 0.032
13,TVERRYTGDWGG,0.726 ± 0.032
14,SRSGASLRAARG,0.722 ± 0.043
15,VYVLTKSSMGRN,0.692 ± 0.048
16,PLPRPPRLVFSS,0.5 ± 0.012
17,PEPSRRASAVSN,0.648 ± 0.059
18,LLLASSFFTLIL,0.687 ± 0.043
19,GWDRNVGWVVGR,0.735 ± 0.044
20,GGLGSHWDCDGL,0.734 ± 0.093
21,VPLGFPPPPLDP,0.727 ± 0.038
22,RVSVGGSVRLFG,0.711 ± 0.04
23,GGGGAGFRGGIE,0.68 ± 0.0019
24,LRGPRRAVEGTP,0.66 ± 0.031
25,YLALSAPKERTH,0.703 ± 0.033
26,RFPLPGLISFSS,0.742 ± 0.056

row,Sequence,protein stability index
1,LRSHKIVDQDPF,0.7235 ± 0.005
2,IKKSRSLRIGMN,0.584 ± 0.04
3,IVGLLGICVGRC,0.57 ± 0.024
4,NTQLPASPVSQG,0.628 ± 0.027
5,LGHVHLIGDIVC,0.7042 ± 0.0039
6,GRGSAVTGVYGV,0.664 ± 0.059
7,TRRAISPEGRWL,0.645 ± 0.014
8,LGLSLPCRGFTL,0.682 ± 0.0073
9,SAPCSFCPPPPG,0.667 ± 0.026
10,KNKKNKCNKVKK,0.726 ± 0.024
11,LLPPPSRTPPPS,0.688 ± 0.02
12,RHIDSRDPTDSP,0.651 ± 0.081
13,VVVSRARSSRSS,0.6332 ± 0.0021
14,RFASVLSLPLSV,0.642 ± 0.13
15,GLCSMRLYKPRI,0.634 ± 0.014
16,SFFLALSIRLPN,0.609 ± 0.0042
17,PRHPPTHLIPKT,0.615 ± 0.034
18,LHPLHSSSPRVS,0.704 ± 0.026
19,IWLVRLSCARAF,0.5374 ± 0.0019
20,AVGRSVVCINRA,0.686 ± 0.041
